Laboratory results taken from the DeepSol protein solubility set.

experiment: soluble on expression in E. coli; label from the status in PepcDB or PDB records

Row | Sequence | soluble on expression in E. coli
1 | MFMSTDEVRRAFLSFFESKGHQIVESSSLVPANDPTLLFTNAGMNQFKDCFLGLEKRAYTRATTAQRCVRAGGKHNDLENVGFTARHHTFFEMLGNFSFGDYFKEDAIQYAWEFLTDVLQLPKERLLVTVYETDDEAFDIWNKKVGIPADRIIRIGDKKGGKKFDSDNFWQMGDTGPCGPCTEIFYDHGDHIWGGPPGSPEEDGDRFIEIWNNVFMQFNRHADGTMEPLPKPSVDTGMGIERISAIMQGVHSNYEIDVFQTLIKAAADAIGYQDLTNQSLRVVADHIRSCAFLIVDGVMPSNEGRGYVLRRIIRRAVRHGNKLGAQGAFFHKLVGPLAEVMGTAGVELKKQQALVEKVLRIEEENFGRTLDRGMSILNDALDQLSGQVLDGETVFKLYDTYGFPADLTNDVARERGFSIDEAGFEQAMEEQRQRAREAGQFGTDYNSLIKSATNTEFCGYTASRGQSVVREMFVEGAEVSTLSAGDKAIIVLDNTPFYAESGGQCGDTGVLKTDAGIFHVEDTQKLGNAIAHHGVIAQGVLATGDQVDAIVDEKRRAAISLNHSATHLLHAALRKVLGEHVAQKGSLVRAETLRFDFSHLEAMTAAEIKEVERLVNQEVRRNHSIETNIMNIDEAKAKGAMALFGEKYDDQVRVLSMGDFSTELCGGIHASNTGDIGLFKIISEGGIAAGIRRIEAVTGEGALDYLDAQQAQHDAKVSEMAAKAKLLEKEIQQLKDKLAAKESAGLINQVKQIAGVNVLVAQLNGADNKALRGMVDDLKNQLSSGIIMLGNVAEGKVGLIAGVTNDLTNKVKAGELVNMVALQVGGKGGGRPDMAQAGGTDAHALPSALESVDAWIAERL | not soluble
2 | MLNQNERHQILEEAVEWLMQMKQKPLNEIELLEFEQWKNRSQLHQSIWQQAYQLEEKFQSLPSHIAIPIIQKQKSHPDIWLMVLSCLPLLGLLYVMNQQQQWTADYRNGFHAPQTVKLPDGGKIILNSNTAIDVKYTAKKRDIILRKGEIWIETQHDVKNRPFTVYTQQGQAQALGTKYLVKIDQKSSQIAVLKGAVKVQPKTNNQYVIITKGQKISINQYNLHSVEYFDHSEIGWTKGLIMVNEIPLSEFVQKLRPYQSALIYLDPEVSNIKISGTFPIANMAQLYEMLENTYAIDVDRYAMNHIIRIRQKK | not soluble
3 | MVTFKLNDEFMFGTATASTQIEGGDTGNTWYKWCQEGRIKDSSSCITACDHWNRVEEDTELLKNLGVQTHRMSLEWSRIEPSRGKFSDDAMKHYRDEIKLLVENNIKPLVTLHHFSEPIWFHEMGGWKKTGNADIFIEYVKYVVENLGDLVSDWVTFNEPNVYVDFGYVIGIFPPGERSLSEGLKVTAELINTHVKLYRLIHRIRRERKFAGRTMVGTAMHLRIFDGISSTGKMIAKVVDYLFNEMFMEGMTTGHMMFPLSKKGSSHKKGRYADFLGINYYTRNIVEFVFDPSLYFHELVCDKDLTKSDLGWDIYPEGIYKVCKRYYKKYKLPIYITENGISDKNDTKRPSFIASHLAYIAKAIKEGIPIERYYYWTLMDNFEWLEGESTDFGLYDCNFRTQERIPRKSVRLYEQICRRKELTAEMIEDFKKYSGITIETIR | soluble
4 | RKWAEDNEVQNCMACGKGFSVTVRRHHCRQCGNIFCAECSAKNALTPSSKKPVRVCDACFNDLQG | soluble
5 | MSLGKLSILSKRKYTMKNQIQFSTFNFKDLPVRVILDPKGEFWFCGTDVCHILGYTNSRKALQDHCKQGGVTKRYTPTKSADQEMTFINEPNLYRLIIKSRKPEAEPFEAWVFEEVLPQIRKTGKYQLQPQQLALPEPEKKFSFEFTEYELQQLVWLWFAFMRGIVTFQHIEKAFKALGSNMSGDIYGQAYEYLSVYAQQTKSEGHHHHHH | not soluble
6 | MVKQRSELLFLYDVQWANPNGDPVDGNKPRIDEETGKNIVTDVRLKRTIRDYLYEYRHQEIFVREIAQDDDYIQDAKARAEDFLVKDGEKLDKSKLTLSEMKKIINDEVLRQCIDVRLFGVTLPIEKSSKEKSSITHTGPVQFKMGQSLHRVKLEYIKGTGAFASGGQMTQKTFREEYVLPYSLIAFYGVINETAARFTRLTEEDVELLVDAMWEGTKNLISRSKVGHVPRLLLRVVYQEPHFHIGELDKYISLHTEKAEEEIRDAQDYVLDVSRLIEVLAREKEKIANIELRQDERLVCNENLVDRLRQEGIVVDIR | not soluble
7 | MAHHHHHHMLRLCLALRSASVQRKPHLFRIDLTSKHTPGHLYLADRAVKSTAADPCFVCLDNAMTCQTVDSNAAVVLRSCMTKGRELFQYGRMRFQGMSAALVFRHNHLVFQGIGDASVQALEMSLQHKDVFALLGGISPHENIPEWARAVEKAIAEGDVEYVAEEMLLQLRCPTEGCTSVVAKISKFSAGLPEPPNYSHAM | not soluble
8 | MGSDKIHHHHHHMAKEKTIYVCRSCGTKYAKWQGNCNACGEWNCIDEEKVPAPASGKHAAKSFMPREQDNRPRLLQDVESGDEERIRLGDEEFDRVLGGGIVKGAFVLLGGEPGIGKSTLILQTVLRLPQLRTLYVSGEESARQLKMRAERLGQAMNGCYVYCETNIERILSRAEELTPDLLVIDSIQTVYTEEMESSAGSVGQIRECAALLLKYCKTTGIPVIVIGHITKEGSIAGPKVLEHIVDTVLLFDGDKHHLYRILRGQKNRYGSTSELGIYEMRQDGLRGVENPSEHLITRNREDLSGIAIAVAMEGIRPILIEAQALVSSAIYANPQRSATGFDIRRMNMLLAVLEKRAGFKLIQKDVFLNIAGGIKIADPATDLAVISAVLASSLDIVIPPAVCMTGEVGLSGEIRPVSRIEQRITEARRIGFKEILVPADNFRQEDAGRFGIRLVPVRKVEEAFRHLFSKGRE | not soluble
9 | MRYSLKQLAVFDAVADCGSVSQAADKLALTQSATSMSLAQLEKMLGRPLFERQGKQMALTHWGMWLRPKAKRLLQDAQQIEMGFYDQHLLSGEIRLGASQTPAEHLVPDLISIIDSDFPEIRISLGVKSTKGVIEGVLDYKYDLGIIEGRCDDNRIYQEVWCRDHLTIVASAHHPFAKRESVSLAQLEQAKWVLREQGAGTRNIFDSVIHPLIPDLDVWREYEHVPVLRTLVANGPYLTCLPYLDVERFIESGLLVALNVPELNMERTLSFIWRADMEENPLAECIKREGLRMMKGKPSIL | not soluble
10 | MGSDKIHHHHHHMTRFRSTLPQVNGTTLLTDSGLETTLIFHDGLDLPCFAAYPLMETAEGRAVLRDYFQRHLAIASERSAGFLLESPTWRASRDWGAQLGHGPDDLARLNNDAIAMLVDLRDDATGVGPIVISGNIGPRGDGYVADAAMTADEAEDYHAEQIGWFAQSEVDLATAVTLSTVAEGVGVIRAAHRVDLPVVVSFTTETDGRLPDGTPLGRAIEQTDALTDGAAAYFMVNCAHPDHFRPVLDTGTAWLNRIGGVRANASRMSHAELDEAETLDAGDPAELGRDYRDLRQILPNLTVIGGCCGTDHRHIEAMADRCLGHNAA | not soluble
11 | GRYEIRFSGAGGQGLILAGVIMAEAASIYDGKQAVQSQSYGPEARGGASKSEVIISDGPVDYPKATQCDALLALTQEACDKYSADLKEGGVLLVDSDLVTKLPPGNYQTTAFNIINTAKNDVGREIVANIVALGAMVALTGVVSKEAAEKAVLSRVPEAFVELNRKAFQMGFEKALAAKK | soluble
12 | MLITSYNPSELGDTLITILRPDTATQTIETHANVTRISDADSGETLGYNFFDVSKTLGDLDANGQVHLTAEQVEQLNNLLKTNDFEPELVLDTDPKFVVGYVESAEAHPKSDHLQITKTNVGLEQPLQIVSGSPNMQANILVVVAKVGAMMPSGLIIWPGELRGVESDGMIVSGRELRLPNAPQRPGALILPADYQPVGAAFDFKRAQTLFTALEHHHHHH | not soluble
13 | MSLHDKQELSSKSNLNNQKGYLDNEGANSNYESKKQSILSELNQLLKQTTNSLKEAKNTTDNLNASNEANKVVEAVINAVNLISSAADQVKSATKNMHDLAQMAEIDLEKIKNSSDKAIFASNLAKEAYSLTKAAEQNMQKLYKEQQKISESESESDYSDSAEIKQAKEAVEIAWKATVEAKDKLIDVENTVKETLDKIKTETTNNTKLADIKEAAELVLQIAKNAKEIVQEVVALLNTEGHHHHHH | soluble
14 | MAEQLEFFPVASPCRGICQSDERGFCRGCMRSRDERFNWQKMSDVEKQNVLRLCRQRFLRKIRANKPLPSEDPQQPSLF | not soluble
15 | MGSDKIHHHHHHMSEEAFDAIIVGAGLAGCVAAYVLAKEGADVLVIERGNYAGSKNMTGGRLYAHSLERIIPGFAKEAPIERKVTKEKVTFLTDDTGVTLDYHNGRDQSPLQESYTLLRGEFDQWLMGKAEEVGAQFITGIRVDEILTQDGKVIGVKADGDELTAKAVILAEGVNPILGEQLGMVKPKVSADAMAVGAKELIELPESVIKDRFNLKDDEGAAWLFAGSPSNGLMGGGFIYTNRNSISLGIVCGLHGIGESDKSVPQMLEDFKNHSLIKPLIEGGKLLEYSGHVVPEAGLNMVPKLVDHGVLITGDAAGFCLNVGYTVRGMDLAIASGEAAAKAVLAARAQQDFSAQGLSSYQSLLEESFLMKDMKLYKQLPAFMETPRIFNQYPKMVADIMHEMFIIDGTPAQPLRKTLLKHCKEVGFMNLIKDGYKGVTSI | not soluble
16 | SQIPLCANLVPVPITNATLDRITGKWFYIASAFRNEEYNKSVQEIQATFFYFTPNKTEDTIFLREYQTRQNQCFYNSSYLNVQRENGTVSRYEGGREHVAHLLFLRDTKTLMFGSYLDDEKNWGLSFYADKPETTKEQLGEFYEALDCLCIPRSDVMYTDWKKDKCEPLEKQHEKERKQEEGES | soluble
17 | MKLDAILWDYDGTLVNSVPKNIEITKAILAIVAPHLTGDNLPKYLHSEANYHYANHAAKNWQELYVDYYGMSHDEMLQAGGLWAEHQEKNQTPVTLFEGIDGVIKEFAQLPHGICSQNSQSNIRRVLSDNGISAPFKSIVGYDDVSNGHQKPDAYSGIKCVESIFGHAENRQLMYIGDHEADTQFARNIEQQLGGQSKVIAVAAAYSGAMPEHWSVQPDYVARTVDELFSIIAQHT | not soluble
18 | GPGSMTTSGALFPSLVPGSRGASNKYLVEFRAGKMSLKGTTVTPDKRKGLVYIQQTDDSLIHFCWKDRTSGNVEDDLIIFPDDCEFKRVPQCPSGRVYVLKFKAGSKRLFFWMQEPKTDQDEEHCRKVNEYLNNPPMPGALGASGSSGHELSALGGEGGLQSLLGNMSHSQLMQLIGPAGLGGLGGLGALTGPGLASLLGSSGPPGSSSSSSSRSQSAAVTPSSTTSSTRATPAPSAPAAASATSPSPAPSSGNGASTAASPTQPIQLSDLQSILATMNVPAGPAGGQQVDLASVLTPEIMAPILANADVQERLLPYLPSGESLPQTADEIQNTLTSPQFQQALGMFSAALASGQLGPLMCQFGLPAEAVEAANKGDVEAFAKAMQNNAKPEQKEGDTKDKKDEEEDMSLD | soluble
19 | MATKITINVTNNSTSTQNFFFFQQPAVYSGGPKVYTNSLYSQTLLPYATSGSVLSFTMILQYYAGVQQQVDPPQIGQPSGQLGAIQPIELTPASGGTPTKNTTNMTVDPSLGLSVPVSTDGPQAGSFRIVTPVYDPVLMNYSAGSAVQSLTGAITLSNFVTAQPNTNLDCQPIIKFYVQTGTYTAGTVMNFTSSSVGAALCDATPGFTTFNVSYNPNGTWTVKNMALSQLANGSRGLLEKSSFTTELNAAAQIAEVLNEAGTAVVSTGLAANFLRPVTVTNLTAPGAIIRNRDYQVGPVDGRHLGLTCTDVAGNTAVFD | not soluble
